Results taken from patent US20110142842A1 (MEDINNOVA, published 2011).

Target: HLA-A*0201 (human, UniProt A*02:01)
Assay: REVEAL MHC binding assay (ProImmune)

Binder | % Pass/fail control
KIVEWDWKI [Peptide ID 109 KIVEWDWKI (CD48)] | 236 % of pass/fail control
YLHVALDLL [Peptide ID 107 YLHVALDLL (MPO)] | 278 % of pass/fail control
VLWHWLLRT [Peptide ID 105 VLWHWLLRT (CD19)] | 337 % of pass/fail control
ELDEELHYV (Modified peptide) [Peptide ID 137 ELDEELHYV (CD33, modified peptide)] | 218 % of pass/fail control
LLQPFMFRV (Modified peptide) [Peptide ID 135 LLQPFMFRV (MPO, modified peptide)] | 329 % of pass/fail control
VLDIYGFEV [Peptide ID 18 VLDIYGFEV (HA-2)] | 161 % of pass/fail control
ALAVISFLL [Peptide ID 114 ALAVISFLL (CD7)] | 221 % of pass/fail control
LLAEVTLAV (Modified peptide) [Peptide ID 147 LLAEVTLAV (CD53, modified peptide)] | 254 % of pass/fail control
ILYPINILV (Modified peptide) [Peptide ID 149 ILYPINILV (CD11a, modified peptide)] | 321 % of pass/fail control
FLPDAFVTV (Modified peptide) [Peptide ID 133 FLPDAFVTV (TdT, modified peptide)] | 204 % of pass/fail control
ALPAALAVI [Peptide ID 127 ALPAALAVI (CD7)] | 264 % of pass/fail control
LLLSGAARV (Modified peptide) [Peptide ID 138 LLLSGAARV (PR3, modified peptide)] | 210 % of pass/fail control
VMNGTDPEL [Peptide ID 120 VMNGTDPEL (CD2)] | 200 % of pass/fail control
ILLLVIWKA [Peptide ID 130 ILLLVIWKA (CD18)] | 56.7 % of pass/fail control
HMRPLAIWL [Peptide ID 106 HMRPLAIWL (CD19)] | 56.2 % of pass/fail control
KLGGDLLRA [Peptide ID 129 KLGGDLLRA (CD18)] | 229 % of pass/fail control
FLPDAFVTM [Peptide ID 16 FLPDAFVTM (TdT)] | 164 % of pass/fail control
SLFLGILSV (also called peptide #19; pep 19) [Peptide ID 19 SLFLGILSV (CD20)] | 160 % of pass/fail control
SLTLGNVFV [Peptide ID 122 SLTLGNVFV (CD53)] | 150 % of pass/fail control
FLQPLFLVV (Modified peptide) [Peptide ID 141 FLQPLFLVV (HA-1, modified peptide)] | 270 % of pass/fail control
GLADVAVGV (Modified peptide) [Peptide ID 146 GLADVAVGV (CD11a, modified peptide)] | 213 % of pass/fail control
ALARGLPGV (Modified peptide) [Peptide ID 143 ALARGLPGV (CD7, modified peptide)] | 297 % of pass/fail control
KLSLGLPGL [Peptide ID 118 KLSLGLPGL (CD19)] | 209 % of pass/fail control
LLQRPGLQL [Peptide ID 126 LLQRPGLQL (CD64)] | 231 % of pass/fail control
RLLFFLLFL [Peptide ID 112 RLLFFLLFL (CD19)] | 42.3 % of pass/fail control
LLIPAGIYV (Modified peptide) [Peptide ID 136 LLIPAGIYV (CD20, modified peptide)] | 275 % of pass/fail control
PLWGGIMYI [Peptide ID 10 PLWGGIMYI (CD20)] | 155 % of pass/fail control
YLMDLSYSV (Modified peptide) [Peptide ID 134 YLMDLSYSV (CD18, modified peptide)] | 242 % of pass/fail control

Binder | % Pass/fail control
LLDPKLCYL [Peptide ID 13 LLDPKLCYL (TCR_TV)] | 204 % of pass/fail control
SLAQVVMKV [Peptide ID 20 SLAQVVMKV (CD11a)] | 155 % of pass/fail control
GLYQGLSTV (Modified peptide) [Peptide ID 140 GLYQGLSTV (TCR_TV, modified peptide)] | 214 % of pass/fail control
FVANAIIHL [Peptide ID 111 FVANAIIHL (CD52)] | 276 % of pass/fail control
ELLDVSWLV (Modified peptide) [Peptide ID 150 ELLDVSWLV (TdT, modified peptide)] | 239 % of pass/fail control
VIVGSIIMV [Peptide ID 110 VIVGSIIMV (CD53)] | 113 % of pass/fail control
YLLDGILFI [Peptide ID 1 YLLDGILFI (TCR_TV)] | 201 % of pass/fail control
CMAGARVQV [Peptide ID 117 CMAGARVQV (CD50)] | 158 % of pass/fail control
LLFLTPMEV [Peptide ID 108 LLFLTPMEV (CD19)] | 283 % of pass/fail control
SLYGPGSYL [Peptide ID 15 SLYGPGSYL (HA-1)] | 198 % of pass/fail control
YLLRVIETL [Peptide ID 14 YLLRVIETL (HA-1)] | 179 % of pass/fail control
WMGGVSEPL [Peptide ID 116 WMGGVSEPL (MPO)] | 199 % of pass/fail control
VLAEASASQ [Peptide ID 125 VLAEASASQ (FLT3)] | 103 % of pass/fail control
LLMVFVALL [Peptide ID 121 LLMVFVALL (CD2)] | 114 % of pass/fail control
SLQSGILTL [Peptide ID 11 SLQSGILTL (CD127)] | 181 % of pass/fail control
LLAPRFLEV (Modified peptide) [Peptide ID 142 LLAPRFLEV (CD50, modified peptide)] | 218 % of pass/fail control
FLVNTVLWV [Peptide ID 12 FLVNTVLWV (CD64)] | 133 % of pass/fail control
FLQDTFPQV (Modified peptide) [Peptide ID 132 FLQDTFPQV (CD127, modified peptide)] | 216 % of pass/fail control
ALYDKTKRI [Peptide ID 115 ALYDKTKRI (TdT_TV2)] | 260 % of pass/fail control
LLWAGALAV (Modified peptide) [Peptide ID 148 LLWAGALAV (CD33, modified peptide)] | 272 % of pass/fail control
YLRPGQAAV (Modified peptide) [Peptide ID 144 YLRPGQAAV (CD18, modified peptide)] | 227 % of pass/fail control
SLFAAISGM [Peptide ID 124 SLFAAISGM (CD20)] | 203 % of pass/fail control
TVQEGLCVL [Peptide ID 123 TVQEGLCVL (CD33)] | 75.2 % of pass/fail control
SLSEEVTYV (Modified peptide) [Peptide ID 145 SLSEEVTYV (CLL-1, modified peptide)] | 191 % of pass/fail control
LLFIVVLTL [Peptide ID 119 LLFIVVLTL (FLT3)] | 114 % of pass/fail control
LLLREHNRL [Peptide ID 113 LLLREHNRL (MPO)] | 195 % of pass/fail control
SMFHVTLKI [Peptide ID 128 SMFHVTLKI (CLL-1)] | 307 % of pass/fail control
